# Source: publication PMC9855569, “Construction of Bi-Enzyme Self-Assembly Clusters Based on SpyCatcher/SpyTag for the Efficient Biosynthesis of (R)-Ethyl 2-hydroxy-4-phenylbutyrate” (Biomolecules, 2023)
# B1: CpCR (Lodderomyces parapsilosis) (protein)
# chain: MTKAVPDKFQGFAVSDPKNWNRPKLASYERKQINPHDVVLKNEVCGLCYSDIHTLSAGWQPLQRDNLVVGHEIIGEVIAVGDEVTEFKVGDRVGIGAASSSCRSCQRCDSDNEQYCKQGAATYNSKDVRSNNYVTQGGYSSHSIADEKFVFAIPEDLPSSYGAPLMCAGITVFSPLIRNLGLDARGKNVGIIGIGGLGHLALQFANAMGANVTAFSRSSSKKEQAMKLGAHDFVATGEDKTWYKNYDDHFDFILNCASGIDGLNLSEYLSTLKVDKKFVSVGLPPSEDKFEVSPFTFLQQGASFGSSLLGSKTEVKEMLNLAAKHNVRPMIEEVPISEENCAKALDRCHAGDVRYRFVFTDFDKAFKA
# notes: full length, 6xHis tag, recombinant in E. coli BL21(DE3), 41 kDa; free (unassembled) enzyme, in the free bi-enzyme system with GDH
# Substrate: CCOC(=O)C(=O)CCc1ccccc1
# Experiment: purified protein
# Type: biochemical, Lodderomyces parapsilosis
# Conditions: apparent constant, free enzymes (CpCR with GDH), NADPH co-substrate, pH 7.0, 30 °C, OPBE 10-50 mM
protein,measurement,value
B1,Km,23.94 mM
same,kcat,1.76 s⁻¹
same,kcat/Km,74 M⁻¹ s⁻¹
